The values that follow come from FireProtDB (doi:10.1021/bi972642d).

The conditions of this data set: Bos taurus; pH 7; 25 °C; Urea; CD; Potassium phosphate 10 mM; whole UniProt chain shown.

B1: Protein S100-G wild type, P02633 (protein)
chain: MSAKKSPEELKGIFEKYAAKEGDPNQLSKEELKLLLQTEFPSLLKGPSTLDELFEELDKNGDGEVSFEEFQVLVKKISQ
Regarding B1, the denaturant m value was 1.17 kcal/mol/M, the “denaturant midpoint (higher = more stable)” value worked out at 5.6 M and the unfolding free energy was determined as 27.4 kJ/mol.
